Experimental data reported in the supplement of paper PMC10567573.

B1: TSPAN10 (parent)
chain: EGCGPPLRRWLRANLAASGGYAIA
B2: BCL2L13 (parent)
chain: YIIQQGGWGTVFSLESEEEEYPGI

Variants of: B1
Experiment: protein stability index of a GFP-peptide fusion (GPS, HEK-293T) (PSI 1-6); higher = more stable
Settings: c terminus: a fixed tail appended
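Also: lentivirally expressed fusions sorted by FACS into six bins by GFP to DsRed ratio, PSI derived from sequencing read proportions per bin multiplied by bin number.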

Protein stability index: each site, then its substitutions
G2: R 2.04, L 1.57, H 2.07, E 1.97, F 2.24, S 1.6, D 1.91, A 2, C 1.68, P 1.85, K 2.32, I 2.15, Q 2.33, T 1.83, N 1
E1: I 1.81, T 1.39, C 3.75, Q 1.38, V 1, L 1.81, G 2, W 2.07, A 1.63, Y 1.97, R 2.57, N 1.96, P 1.71, D 2.06, S 2.37, K 1.42, M 2.45

Variants of: B2
Experiment: as above
Settings: c terminus: a fixed tail appended

Protein stability index of substitutions, site by site:
E15: K 1.27, G 1.82, P 2.02, Q 2.31, T 1.67, L 2.57, N 2.34, M 3.49, F 2.92, S 2.81
I2: F 2.68, Y 2.46, L 2.76, Q 1.98, M 2.86, A 1.96, K 3.31, E 5.34, H 2.9, R 2.42, T 2.75, G 2.95, W 2.38, D 3.9
W8: L 1.99, S 3.17, F 2.83, D 2.56, P 2.97, V 1.53, G 2.58, E 3.31, K 2.1, N 3.09, Y 2.84, T 2.84, C 2.31, A 2.02, R 2.37, I 1.66, Q 3.93, H 2.81, M 1.88
P22: D 2.69, T 2.02, R 1.92, A 2, E 2.22, H 1.7, K 2.65, I 3.56, Y 1.38, M 1.42, N 1.42, L 2.9, Q 1.47, V 1.37, S 2.18
G7: Q 2.85, R 1.73, N 1.05, K 2.06, E 1.74, I 2.58, A 2.35, C 1.72, D 1.87, Y 3.6, H 2.14, L 1.82, T 1.45, P 1.58, S 1.46
T10: F 2.42, H 1.11, I 3.06, M 1.4, P 1.07, E 1.17, S 2.34, R 1.6, N 2.35, D 1.31
E18: D 1.96, L 1.92, F 2.56, H 1.85, P 1.53, Q 2.13, N 2.86, T 1.99, S 2.56
Y1: G 4.05, V 2.57, K 3.39, D 3.47, L 1.87, F 1.18, E 2.86, C 2.47, H 3.19, N 4.12, I 1.6, T 3.75, Q 3.18, P 4.31, A 3.38, R 3.87
Y21: T 1.21, M 2.26, H 2.53, L 2.11, N 1.74, S 1.14, D 2.22, E 1.64, I 1.59, Q 2.33, R 1.75, G 2.02
S16: D 1.76, E 1.59, V 1.65, F 2.94, H 2.01, Y 2.61, C 3.01, M 2.68, A 1.69, N 1.83, T 2.25, I 4.26, K 2.69, G 2.38
E17: C 2.77, I 1.76, P 4.07, T 2.81, A 1.23, N 2.31, Y 3.21, D 1.19, H 2.65, F 2.7, W 2.52
G6: W 1.14, S 1.73, T 2.31, V 1.23, P 2.12, D 1.42, E 2.06, H 1.48, F 1.97, K 2.9, N 2.15, R 2.02
L14: R 1.87, P 1.87, I 1.76, V 1.98, T 2.2, Y 1.84, W 1.06, Q 1.78, H 1, S 2.23, K 1.5, E 2.57, D 2.21
G23: R 1.28, F 1.26, V 1.85, M 2.57, A 1.21, P 1.97, Q 1.84, W 1.93, L 2.01, D 2.7, N 1.16, K 2.61, Y 2.18, I 1.76, H 1, E 2.43, T 2.58
V11: I 1.78, D 2.67, Y 2.04, R 1.91, G 3.31, A 2.12, T 1, K 1.64, F 2.93, H 2.25, W 1.42, P 1.76, L 1.36, S 2.61, N 1.98, Q 1.86
I3: F 2.27, A 1.58, H 2.71, P 2.56, E 2.63, S 2.04
S13: C 1.49, D 2.72, F 2.46, Y 1.71, T 1.62, V 2.28, P 1.38, N 3.23, E 1.33, H 1.43, G 1.74, L 1.24
I24: M 1.53, L 1.82, D 1.54, F 2.58, S 1.23, P 2.14, V 1.78, A 1.39, N 2.39, K 1.75, H 1.63, G 2.85, T 1.1, C 1.34, Y 1.22
Q5: R 1.92, T 1.72, N 1.73, G 1.69, W 2.16, E 1.33, M 1.67
G9: Q 1.81, A 1.62, L 3.44, D 1.13, T 3, R 1.06, E 2.65, P 1.09, K 1.7, H 1.42, S 1.68, I 3.4, C 3.36, V 3.32
E19: T 2.34, S 2.39, R 1.93, H 2.29, Q 3.34, P 1.82, L 2.41, W 2.31, C 3.36, D 1.19, Y 2.41
Q4: H 1.2, V 3.01, R 2.35, W 2.88, E 1.4, A 2.19, N 1.58
F12: N 1.56, Q 1.24, M 2.98, L 1.81, S 2.03, E 2.66, I 1.64, A 2.5, D 2.35, P 1.58, K 2.39, T 2.13, V 1.65, R 1.83, H 1.75
E20: P 2.87, N 2.17, G 1.51, I 3.47, M 1.31, K 2.15, H 2.46, R 2.98, A 1.13, C 1.91, S 1.82, D 1.71
